Experimental data from publication PMC3518219 (The Journal of Cell Biology, 2012).

Target: T1, GST-RadilPDZ (human, UniProt Q96JH8 870-1075)
T1 sequence (looked up): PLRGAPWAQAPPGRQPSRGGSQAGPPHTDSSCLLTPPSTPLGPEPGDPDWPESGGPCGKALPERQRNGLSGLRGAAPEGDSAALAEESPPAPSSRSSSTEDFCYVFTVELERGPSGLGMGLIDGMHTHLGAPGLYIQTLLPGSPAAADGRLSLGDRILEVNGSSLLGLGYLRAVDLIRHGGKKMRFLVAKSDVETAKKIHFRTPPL
Experiment: pull-down

- binding result: binds
B1: Flag-KIF14-ctail-IQWV (domain or fragment, human, UniProt Q15058 1483-1648, looked up)
chain: VQEENFEYQDFKRMVNRAPEFLKLKHCLEKAIEIIISALKGCHSDINLLQTCVESIRNLASDFYSDFSVPSTSVGSYESRVTHIVHQELESLAKSLLFCFESEESPDLLKPWETYNQNTKEEHQQSKSSGIDGSKNKGVPKRVYELHGSSPAVSSEECTPSRIQWV
